# Tests used:
# [1] = molecular target: HVEM stably expressed on B78-H1-A10 cells (UniProt Q92956); assay: cell-based or functional assay
# [2] = molecular target: nectin-1 stably expressed on B78-H1-C10 cells (UniProt Q15223); assay: cell-based or functional assay
# Sequence of UniProt Q15223 (Q15223 31-517 limits assumed): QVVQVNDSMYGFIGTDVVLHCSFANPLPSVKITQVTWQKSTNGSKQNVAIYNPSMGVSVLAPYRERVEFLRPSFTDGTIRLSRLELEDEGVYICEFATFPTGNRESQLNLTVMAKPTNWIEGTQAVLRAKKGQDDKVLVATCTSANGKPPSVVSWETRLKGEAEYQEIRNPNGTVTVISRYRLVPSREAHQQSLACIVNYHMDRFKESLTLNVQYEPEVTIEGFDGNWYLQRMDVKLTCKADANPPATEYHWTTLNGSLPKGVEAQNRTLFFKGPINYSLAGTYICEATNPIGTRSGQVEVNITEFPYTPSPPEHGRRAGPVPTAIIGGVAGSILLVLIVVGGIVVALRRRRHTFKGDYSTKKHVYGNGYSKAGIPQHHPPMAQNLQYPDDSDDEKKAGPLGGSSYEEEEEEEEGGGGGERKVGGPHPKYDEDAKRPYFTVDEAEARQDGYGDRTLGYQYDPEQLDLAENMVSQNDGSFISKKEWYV
# Sequence of UniProt Q92956 (Q92956 39-283 limits assumed): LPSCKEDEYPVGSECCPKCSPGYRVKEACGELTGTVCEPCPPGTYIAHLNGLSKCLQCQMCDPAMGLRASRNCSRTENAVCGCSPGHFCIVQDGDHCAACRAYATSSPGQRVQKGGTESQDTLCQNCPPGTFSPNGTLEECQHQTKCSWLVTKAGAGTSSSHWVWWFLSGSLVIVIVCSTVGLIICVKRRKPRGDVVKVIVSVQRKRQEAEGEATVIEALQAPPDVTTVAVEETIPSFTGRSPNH
substance,measurement,setting,value
"HSV-1 strain KOS glycoprotein D with the A3C mutation, as carried by the KOS-gDA3C virus (from UniProt A1Z0Q5 26-394)",entry of virus into A10 cells (plaques counted after citrate wash),[1],50 % reduction
same,entry of virus into C10 cells (plaques counted after citrate wash),[2],70 % reduction

# From patent US20150290315A1
